The record followed here is doi:10.1101/2025.05.21.655409.

Assay [1] has as its target Xenopus laevis histone H3 labelled with Oregon Green 488 at C110 (Xenopus laevis) (UniProt P84233). In words: fluorescence polarisation; fluorescence anisotropy; 5 nM OG488-labeled histone, ligase complex titrated; 20 mM Tris-HCl, 10 mM NaCl, 5% glycerol, 1 mM DTT; BSA-coated 96-well plates, 25 °C, 1.5-2.5 h.
Assay [2] concerns the target Xenopus laevis histone H4 V22C labelled with Oregon Green 488 (Xenopus laevis) (UniProt P62799). Described as above.

With “CUL5-RBX2 (from UniProt Q93034 1-780; Q9UBF6 1-113) (complex)”, the fold lower affinity than ASB9-CRL in assay [1] and in assay [2] was 2 fold in each case. The fold lower affinity than NEDD8-ASB9-CRL in assay [1] and in assay [2] was 4 fold in each case.

On to “NEDD8-ASB9-ELOB/C-CUL5-RBX2 (NEDD8-ASB9-CRL) (from UniProt Q96DX5 1-294; Q15370 1-118; Q15369 1-112; Q93034 1-780; Q9UBF6 1-113; Q15843 1-76) (complex)”, for which the Kd (as a rule, the equilibrium constant for the complex coming apart) was 78.2 nM in assay [1] and 48.4 nM in assay [2].

Turning to “ASB9-ELOB/C-CUL5-RBX2 (ASB9-CRL), not neddylated (from UniProt Q96DX5 1-294; Q15370 1-118; Q15369 1-112; Q93034 1-780; Q9UBF6 1-113) (complex)”, the Kd in assay [1] was found to be 187 nM; in assay [2] it was 79.7 nM.
